Laboratory results published in publication PMC3985676.

Biological target: BswR (Bacterial SWarming Regulator), PA2780 (Pseudomonas aeruginosa)
Assay: SEC; gel filtration profile during protein purification; HiLoad Superdex 75 26/60; 20 mM Tris pH 7.5, 200 mM NaCl, 5 mM beta-ME

BswR (Bacterial SWarming Regulator), PA2780 (natural protein)
stoichiometry N: 2
